Assay results reported in article PMC8253215.

These substances were tested against rat luteinizing hormone/chorionic gonadotropin receptor (rLH/CGR) (rat) (UniProt P16235).
Sequence of UniProt P16235 (P16235 27-700): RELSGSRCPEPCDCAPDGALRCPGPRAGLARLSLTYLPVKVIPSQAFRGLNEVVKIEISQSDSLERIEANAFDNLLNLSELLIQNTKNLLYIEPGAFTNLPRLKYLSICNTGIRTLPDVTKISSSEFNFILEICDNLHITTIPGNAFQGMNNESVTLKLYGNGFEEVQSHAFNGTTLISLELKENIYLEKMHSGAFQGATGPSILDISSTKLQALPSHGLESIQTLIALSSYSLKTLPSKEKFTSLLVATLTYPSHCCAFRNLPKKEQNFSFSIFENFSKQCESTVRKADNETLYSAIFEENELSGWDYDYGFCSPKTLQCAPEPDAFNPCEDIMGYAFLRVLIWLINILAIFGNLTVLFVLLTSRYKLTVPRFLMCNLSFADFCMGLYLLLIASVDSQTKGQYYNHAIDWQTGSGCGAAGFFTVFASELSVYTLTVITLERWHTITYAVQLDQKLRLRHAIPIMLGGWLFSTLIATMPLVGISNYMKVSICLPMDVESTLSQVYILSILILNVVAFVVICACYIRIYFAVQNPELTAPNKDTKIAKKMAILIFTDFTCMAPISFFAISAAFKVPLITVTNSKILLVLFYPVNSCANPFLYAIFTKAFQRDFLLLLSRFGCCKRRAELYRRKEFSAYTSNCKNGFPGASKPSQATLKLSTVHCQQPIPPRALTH

Row | Substance | EC50 of cAMP response (HTRF) in CHO-K1 cells expressing rLH/CGR [ng/mL]
1 | rec-eCGβF103P;R104K/α (from UniProt P08751 21-169; P01220 25-120) (ligand) | 0.037
2 | rec-eCGβV102G/α (from UniProt P08751 21-169; P01220 25-120) (ligand) | 0.015
3 | rec-eCGβV102G;F103P/α (from UniProt P08751 21-169; P01220 25-120) (ligand) | 0.016
4 | rec-eCGβV102G;F103P;R104K/α (from UniProt P08751 21-169; P01220 25-120) (ligand) | 0.013
5 | rec-eCGβV102G;R104K/α (from UniProt P08751 21-169; P01220 25-120) (ligand) | 0.038

Second part, the substance after the results:

Row | EC50 of cAMP response (HTRF) in CHO-K1 cells expressing rLH/CGR [ng/mL] | Substance
6 | 0.018 | rec-eCGβF103P/α (from UniProt P08751 21-169; P01220 25-120) (ligand)
7 | 0.033 | rec-eCGβR104K/α (from UniProt P08751 21-169; P01220 25-120) (ligand)

The substances below were run against rat follicle-stimulating hormone receptor (rFSHR) (rat) (UniProt P20395).
Sequence of UniProt P20395 (P20395 18-692): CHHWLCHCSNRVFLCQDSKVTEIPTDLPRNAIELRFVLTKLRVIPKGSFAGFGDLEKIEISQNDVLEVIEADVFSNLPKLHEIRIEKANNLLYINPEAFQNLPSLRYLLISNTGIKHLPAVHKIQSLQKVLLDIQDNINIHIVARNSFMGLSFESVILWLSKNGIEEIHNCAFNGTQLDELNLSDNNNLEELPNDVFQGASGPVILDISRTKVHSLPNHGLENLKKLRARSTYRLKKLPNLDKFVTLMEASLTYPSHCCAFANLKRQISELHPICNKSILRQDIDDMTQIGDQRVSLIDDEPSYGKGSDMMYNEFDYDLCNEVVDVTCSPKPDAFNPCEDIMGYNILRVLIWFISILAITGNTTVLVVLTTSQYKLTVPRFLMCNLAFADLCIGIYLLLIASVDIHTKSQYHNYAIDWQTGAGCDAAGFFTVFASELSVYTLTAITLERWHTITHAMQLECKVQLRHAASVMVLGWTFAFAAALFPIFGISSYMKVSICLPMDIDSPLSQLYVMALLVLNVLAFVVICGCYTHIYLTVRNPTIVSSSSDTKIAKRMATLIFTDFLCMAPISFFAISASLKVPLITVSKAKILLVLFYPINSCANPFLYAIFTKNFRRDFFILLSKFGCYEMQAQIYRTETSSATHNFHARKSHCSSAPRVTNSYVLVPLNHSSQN

Row | Substance | EC50 of cAMP response (HTRF) in CHO-K1 cells expressing rFSHR [ng/mL]
8 | rec-eCGβF103P;R104K/α (from UniProt P08751 21-169; P01220 25-120) (ligand) | 6.4
9 | rec-eCGβV102G/α (from UniProt P08751 21-169; P01220 25-120) (ligand) | 0.79
10 | rec-eCGβV102G;F103P/α (from UniProt P08751 21-169; P01220 25-120) (ligand) | 1.75
11 | rec-eCGβV102G;F103P;R104K/α (from UniProt P08751 21-169; P01220 25-120) (ligand) | 2.86
12 | rec-eCGβV102G;R104K/α (from UniProt P08751 21-169; P01220 25-120) (ligand) | 5.45

Now from value to substance:

Row | EC50 of cAMP response (HTRF) in CHO-K1 cells expressing rFSHR [ng/mL] | Substance
13 | 0.99 | rec-eCGβF103P/α (from UniProt P08751 21-169; P01220 25-120) (ligand)
14 | 0.98 | rec-eCGβR104K/α (from UniProt P08751 21-169; P01220 25-120) (ligand)
15 | 0.16 | single-chain recombinant equine chorionic gonadotropin β/α, wild type (rec-eCGβ/α-wt) (from UniProt P08751 21-169; P01220 25-120) (ligand)
